{"source": "paper PMC2783756", "about": "(Biochemistry, 2009)", "key": {"NKX3.1 homeodomain": {"tested_on": "NKX3.1 homeodomain", "test": "CD thermal unfolding of NKX3.1 constructs", "format": "physicochemical", "details": "with and without His tag sequence; within error (±1 °C)"}, "[1]": {"tested_on": "medium-chain acyl-CoA dehydrogenase", "details": "activity drops significantly for changes in temperature as small as 3 °C; ref [21]; cited from earlier work"}, "DNA": {"tested_on": "DNA", "details": "previously observed for N-terminal construct; ref [6]; cited from earlier work"}}}
{"molecule": "114–184: NKX3.1 homeodomain construct, recombinant with N-terminal hexahistidine sequence (protein, UniProt Q99801 114-184, looked up, fragment, N-terminal His6 tag) PRLPQTPKQPQKRSRAAFSHTQVIELERKFSHQKYLSAPERAHLAKNLKLTETQVKIWFQNRRYKTKRKQL", "values": [{"measurement": "Effect of His tag on unfolding transition temperature", "setting": "NKX3.1 homeodomain", "result": "the same unfolding transition temperature within error"}]}
{"molecule": "Y42H allele of human medium-chain acyl-CoA dehydrogenase: Y42H allele of human medium-chain acyl-CoA dehydrogenase (protein, UniProt P11310 26-421, looked up, variant Y42H) Medium-chain specific …: KANRQREPGLGFSFEFTEQQKEFQATARKFAREEIIPVAAEHDKTGEYPVPLIRRAWELGLMNTHIPENCGGLGLGTFDACLISEELAYGCTGVQTAIEGNSLGQMPIIIAGNDQQKKKYLGRMTEEPLMCAYCVTEPGAGSDVAGIKTKAEKKGDEYIINGQKMWITNGGKANWYFLLARSDPDPKAPANKAFTGFIVEADTPGIQIGRKELNMGQRCSDTRGIVFEDVKVPKENVLIGDGAGFKVAMGAFDKTRPVVAAGAVGLAQRALDEATKYALERKTFGKLLVEHQAISFMLAEMAMKVELARMSYQRAAWEVDSGRRNTYYASIAKAFAGDIANQLATDAVQILGGNGFNTEYPVEKLMRDAKIYQIYEGTSQIQRLIVAREHIDKYKN", "values": [{"measurement": "Thermal stability and activity", "setting": "[1]", "result": "lower thermal stability"}]}
{"molecule": "1–184: NKX3.1 (1–184) construct, recombinant with N-terminal hexahistidine sequence (protein, UniProt Q99801 1-184, looked up, fragment, N-terminal His6 tag) MLRVPEPRPGEAKAEGAAPPTPSKPLTSFLIQDILRDGAQRQGGRTSSQRQRDPEPEPEPEPEGGRSRAGAQNDQLSTGPRAAPEEAETLAETEPERHLGSYLLDSENTSGALPRLPQTPKQPQKRSRAAFSHTQVIELERKFSHQKYLSAPERAHLAKNLKLTETQVKIWFQNRRYKTKRKQL", "values": [{"measurement": "DNA binding", "setting": "DNA", "result": "weaker DNA binding"}]}
